Laboratory results reported in PMC5624731 (2018).
One block for each binder: values may come before it.

How the values were obtained:
Test in all cases: nESI-MS
PCBP1 = PCBP1 (Homo sapiens, UniProt Q15365)
PCBP1 (apo) = PCBP1 (apo) (Homo sapiens, UniProt Q15365)
Ferredoxin = Ferredoxin (Spinacia oleracea, UniProt P00221)
Ferredoxin, sequence (P00221 51-147): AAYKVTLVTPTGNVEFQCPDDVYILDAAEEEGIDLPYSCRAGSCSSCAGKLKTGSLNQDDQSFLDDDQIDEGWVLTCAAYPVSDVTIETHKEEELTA

PCBP1, sequence (Q15365 whole entry): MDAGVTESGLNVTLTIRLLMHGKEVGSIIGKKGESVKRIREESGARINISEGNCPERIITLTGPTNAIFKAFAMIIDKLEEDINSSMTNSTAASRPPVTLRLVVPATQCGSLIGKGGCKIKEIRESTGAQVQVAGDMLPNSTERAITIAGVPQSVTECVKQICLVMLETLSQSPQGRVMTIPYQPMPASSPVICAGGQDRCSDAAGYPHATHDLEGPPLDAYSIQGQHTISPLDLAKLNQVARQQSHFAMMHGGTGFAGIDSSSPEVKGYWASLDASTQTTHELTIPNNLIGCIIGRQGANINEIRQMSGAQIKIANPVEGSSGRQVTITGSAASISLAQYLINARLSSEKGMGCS
PCBP1 (apo), sequence (Q15365 whole entry): as above

Kd (PCBP1): 60 µM
B1: HDAC8 (Zn) (protein)
chain: MEEPEEPADSGQSLVPVYIYSPEYVSMCDSLAKIPKRASMVHSLIEAYALHKQMRIVKPKVASMEEMATFHTDAYLQHLQKVSQEGDDDHPDSIEYGLGYDCPATEGIFDYAAAIGGATITAAQCLIDGMCKVAINWSGGWHHAKKDEASGFCYLNDAVLGILRLRRKFERILYVDLDLHHGDGVEDAFSFTSKVMTVSLHKFSPGFFPGTGDVSDVGLGKGRYYSVNVPIQDGIQDEKYYQICESVLKEVYQAFNPKAVVLQLGADTIAGDPMCSFNMTPVGIGKCLKYILQWQLATLILGGGGYNLANTARCWTYLTGVILGKTLSSEIPDHEFFTAYGPDYVLEITPSCRPDRNEPHRIQQILNYIKGNLKHVV
modifications: Zn2+-bound HDAC8

Kd (PCBP1): 63 µM
B2: HDAC8 (protein)
chain: B1 chain

Kd (PCBP1 (apo)): 68 µM
B3: HDAC8 (apo) (protein)
chain: B1 chain

Kd (PCBP1): 44 µM
B4: HDAC8 (Fe) (protein)
chain: B1 chain
modifications: Fe2+-bound HDAC8

Kd (Ferredoxin): 16 µM
B5: Ferredoxin-NADP+ reductase (protein)
chain: QIASDVEAPPPAPAKVEKHSKKMEEGITVNKFKPKTPYVGRCLLNTKITGDDAPGETWHMVFSHEGEIPYREGQSVGVIPDGEDKNGKPHKLRLYSIASSALGDFGDAKSVSLCVKRLIYTNDAGETIKGVCSNFLCDLKPGAEVKLTGPVGKEMLMPKDPNATIIMLGTGTGIAPFRSFLWKMFFEKHDDYKFNGLAWLFLGVPTSSSLLYKEEFEKMKEKAPDNFRLDFAVSREQTNEKGEKMYIQTRMAQYAVELWEMLKKDNTYFYMCGLKGMEKGIDDIMVSLAAAEGIDWIEYKRQLKKAEQWNVEVY
